# Measurements reported in patent publication US20210380702A1 (Regeneron, published 2021).
# Where “and” joins values, the source holds several entries; their conditions need not be identical. Equal values may be shown once.
# Assays:
# [1] = molecular target: T1, full length human PD-L1 (amino acids 1 to 290 of NP_054862.1) on transfected cells (human, UniProt Q9NZQ7 19-290); assay: FACS, 100 nM antibody, HEK293/hPD-L1 cells
# T1 construct: also called HEK293/hPD-L1; Raji/hPD-L1
# Description: (§1) The binding of anti-PD-L1 antibodies to a human embryonic kidney cell line (HEK293; ATCC, #CRL-1573) stably transfected with full length human PD-L1 (amino acids 1 to 290 of accession number NP_054862.1) (HEK293/hPD-L1) was determined by FACS.
# (§2) For the assay, adherent cells were detached using enzyme-free dissociation buffer and blocked with complete medium. Cells were centrifuged and resuspended at a concentration of 2.8×10\hat{ }6 cells/mL in cold PBS containing 2% FBS. […] Cells were washed with D-PBS containing 2% FBS to remove unbound secondary detection reagents and fluorescence measurements were acquired using a HyperCyte (IntelliCyt, Inc.) flow cytometer. Data was analyzed using HyperCyte software.
# [2] = molecular target: T2, recombinant cynomolgus monkey PD-L1 expressed with a C-terminal mouse IgG2a Fc tag (cynomolgus monkey); assay: SPR (Biacore), mAb captured, 37C
# T2 construct: also called MfPD-L1-mFc; monkey PD-L1-mFc
# [3] = molecular target: T3, recombinant human PD-L1 (amino acids 19-239 of NP_054862.1) expressed with a C-terminal mouse IgG2a Fc tag (human); assay: competition ELISA: 0.5 nM hPD-L1-mFc binding to coated hPD-1-hFc
# T3 construct: called dimeric; also called hPD-L1-mFc
# Description: (§3) The ability of monoclonal anti-PD-L1 antibodies to block human PD-L1 from binding to its binding partners, the human PD-1 and the human B7-1 receptors, was measured using two competition sandwich ELISA formats.
# (§4) A dimeric human PD-1 protein comprised of a portion of the extracellular domain (amino acids 25-170 of accession number NP_005009.2 with a C93S change) that was expressed with a C-terminal hFc tag (hPD-1-hFc; SEQ ID: 350) and a dimeric human B7-1 protein comprised of a portion of the extracellular domain expressed with C-terminal hFc tag and hexahistidine tags (hB7-1-hFc-6His; R&D Systems, #140-B1) were separately coated at 2 μg/mL on a 96-well microtiter plate in a PBS buffer overnight at 4° C. […] These antibody-protein complexes were then incubated for 1 hour at room temperature (RT). […] The complexes were allowed to bind to the coated plates for 1 hour at RT. […] Samples were developed with a TMB solution (BD Biosciences, #51-2606KC and #51-2607KC) to produce a colorimetric reaction and neutralized with 1M sulfuric acid before measuring absorbance at 450 nm on a Victor X5 plate reader. Data analysis used a sigmoidal dose-response model within Prism™ software.
# [4] = molecular target: T1, full length human PD-L1 (amino acids 1 …); assay: FACS, 100 nM antibody
# Description: as §1, §2
# [5] = molecular target: T3, recombinant human PD-L1 (amino acids …); assay: competition ELISA: 8 nM hPD-L1-mFc binding to coated hB7-1-hFc-6His
# Description: as §3, §4
# [6] = molecular target: T4, recombinant human PD-L1 (amino acids 19-239 of NP_054862.1) expressed with a C-terminal human IgG1 Fc tag (human); assay: SPR (Biacore 3000): 100 nM hPD-L1-hFc + 500 nM mAb on captured hPD-1-mFc, 25C
# T4 construct: also called hPD-L1-hFc
# Description: Next, inhibition studies for anti-PD-L1 monoclonal antibodies expressed with human Fc were performed on Biacore 3000 instrument. […] The entire experiment was performed at 25° C. in HBST running buffer (0.01 M HEPES pH7.4, 0.15M NaCl, 3 mM EDTA, 0.05% v/v Surfactant P20). The real-time binding responses were monitored during the entire course of the experiment and the binding response at the end of every step was recorded.
# [7] = molecular target: T1, full length human PD-L1 (amino acids 1 …); assay: cell-based or functional assay
# T1 sequence (Q9NZQ7 19-290 limits assumed): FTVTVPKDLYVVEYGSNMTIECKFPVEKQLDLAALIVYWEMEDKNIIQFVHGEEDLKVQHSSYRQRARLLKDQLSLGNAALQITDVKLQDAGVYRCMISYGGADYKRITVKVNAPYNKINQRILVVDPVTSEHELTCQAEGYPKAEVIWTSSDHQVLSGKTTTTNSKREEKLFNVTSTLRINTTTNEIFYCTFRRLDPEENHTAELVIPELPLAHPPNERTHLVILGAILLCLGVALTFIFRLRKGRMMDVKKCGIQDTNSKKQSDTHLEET
# T2 sequence (chain, as listed by the source limits assumed): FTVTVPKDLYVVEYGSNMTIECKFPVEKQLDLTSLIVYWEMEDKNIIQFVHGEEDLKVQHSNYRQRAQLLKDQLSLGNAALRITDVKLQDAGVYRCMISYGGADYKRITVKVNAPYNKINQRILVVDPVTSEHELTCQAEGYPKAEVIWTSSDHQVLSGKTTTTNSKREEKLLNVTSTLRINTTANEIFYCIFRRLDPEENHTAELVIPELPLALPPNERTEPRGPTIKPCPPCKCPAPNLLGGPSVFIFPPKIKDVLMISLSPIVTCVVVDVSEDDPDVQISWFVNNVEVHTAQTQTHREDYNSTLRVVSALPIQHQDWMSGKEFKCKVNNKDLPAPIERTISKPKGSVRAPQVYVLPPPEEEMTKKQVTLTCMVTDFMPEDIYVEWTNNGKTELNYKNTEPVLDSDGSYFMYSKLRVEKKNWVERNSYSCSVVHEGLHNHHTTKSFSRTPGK
# T3 sequence (chain, as listed by the source limits assumed): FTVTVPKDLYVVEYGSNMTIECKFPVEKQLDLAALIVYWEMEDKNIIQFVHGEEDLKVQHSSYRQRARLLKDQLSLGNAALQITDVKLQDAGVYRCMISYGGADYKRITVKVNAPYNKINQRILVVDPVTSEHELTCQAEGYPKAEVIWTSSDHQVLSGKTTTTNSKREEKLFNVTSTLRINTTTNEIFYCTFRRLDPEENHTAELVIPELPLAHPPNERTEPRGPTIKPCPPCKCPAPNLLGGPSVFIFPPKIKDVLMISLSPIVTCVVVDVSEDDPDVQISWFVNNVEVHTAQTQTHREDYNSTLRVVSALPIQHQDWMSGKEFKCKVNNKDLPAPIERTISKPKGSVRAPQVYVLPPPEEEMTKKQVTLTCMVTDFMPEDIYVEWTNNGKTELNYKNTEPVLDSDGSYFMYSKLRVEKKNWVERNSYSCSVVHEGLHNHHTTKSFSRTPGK
# T4 sequence (chain, as listed by the source limits assumed): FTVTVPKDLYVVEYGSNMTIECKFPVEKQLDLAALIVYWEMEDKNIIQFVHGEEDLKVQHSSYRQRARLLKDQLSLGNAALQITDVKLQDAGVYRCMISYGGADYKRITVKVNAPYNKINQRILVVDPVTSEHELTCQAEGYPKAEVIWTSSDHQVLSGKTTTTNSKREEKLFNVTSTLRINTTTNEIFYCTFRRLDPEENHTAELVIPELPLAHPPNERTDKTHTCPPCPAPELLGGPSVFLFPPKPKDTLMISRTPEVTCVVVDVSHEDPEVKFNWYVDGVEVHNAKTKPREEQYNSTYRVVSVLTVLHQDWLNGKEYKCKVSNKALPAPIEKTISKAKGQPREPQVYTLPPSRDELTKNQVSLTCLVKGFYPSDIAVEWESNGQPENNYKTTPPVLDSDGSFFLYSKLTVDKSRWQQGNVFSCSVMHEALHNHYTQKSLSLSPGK
MFI [1] [MFI],Kd [2],koff [2],kon [2],t1/2 [2],% maximum blocking [3] [%],IC50 [3] [nM],Ratio of HEK293/hPD-L1 to HEK293 parental cells [4],% maximum blocking [5] [%],% Blocking [6] [%],Emax mean [%] @ 100 nM [7] [%],IC50 [5] [nM],Concentration [M] of Antibody at 125% activation [7] [M],Binder
228000,0.319 nM,0.000502 s⁻¹,1.57e+06 M⁻¹ s⁻¹,23 min,59,< 0.25,97,8,-193,103,,,"H1H9396P2 (antibody, V domains shown, human IgG1 Fc (H1H prefix)) VH: QVQLVQSGAEVEKPGASVKVSCKASGYIFTHYGISWVRQAPGQGLEWVGWISPYNGYTDYAQKLQGRVTLTTDTSTTTAYMELRNLRSDDTAMYYCSRGRGPYWSFDLWGRGTLVTVSS VL: not shown"
324000,0.139 nM and 0.161 nM,0.000474 s⁻¹ and 0.000465 s⁻¹,3.41e+06 M⁻¹ s⁻¹ and 2.9e+06 M⁻¹ s⁻¹,24 min and 25 min,100,< 0.25,263,100,91,141,< 4,1.86e-11,"H1H9387P2 (antibody, V domains shown, human IgG1 Fc (H1H prefix)) VH: QVQLVQSGAEVKKPGSSVKVSCKASGGTFNTYVLSWVRQAPGQGLEWMGEIIPILGAANYAQNFQGRVTFTTDESTNTAYMDLSSLRSEDTAVYYCARDRTSGGFDPWGQGTLVTVSS VL: not shown"
206000,0.825 nM,0.000235 s⁻¹,284000 M⁻¹ s⁻¹,49 min,39,< 0.25,140,-30,-448,86.5,,,"H1H9382P2 (antibody, V domains shown, human IgG1 Fc (H1H prefix)) VH: EVQLVESGGGLVQPGGSLRLSCAASGFTVGTNFMNWVRQAPGKGLEWVSAIYSGGTANYADSVKGRFTISRDTSRNTLYLQMNSLRTEDTAVYYCARGGGMDVWGQGTTVTVSS VL: not shown"
276000,0.746 nM,0.000203 s⁻¹,272000 M⁻¹ s⁻¹,57 min,34,0.53,125,-13,-428,89.9,,,"H1H9354P2 (antibody, V domains shown, human IgG1 Fc (H1H prefix)) VH: EVQLVESGGGLVQPGGSLRLSCEASGFTVGVNHMNWVRQAPGKGLEWVSVIFSSGRTFYGDYVKGRLTIFRQTSQNTVYLQMNSLRSEDTAIYYCARGIGGLDIWGRGTMVTVSS VL: not shown"
228000,0.339 nM,0.000292 s⁻¹,861000 M⁻¹ s⁻¹,40 min,26,< 0.25,121,-34,-422,89.2,,,"H1H9345P2 (antibody, V domains shown, human IgG1 Fc (H1H prefix)) VH: EVQLVESGGGLVQPGGSLRLSCAASGFTISTNYMNWVRQAPGKGLEWVAVIYSSGSTYYIDSVKGRFTISRLTSKNTVYLQMSSLNSEDTAVYYCARGIRGFDIWGQGTMVTVSS VL: not shown"
379000,0.0247 nM,4.6e-05 s⁻¹,1.86e+06 M⁻¹ s⁻¹,251 min,100,< 0.25,168,99,84,163,4.4,9.81e-11,"H1H9336P (antibody, V domains shown, human IgG1 Fc (H1H prefix)) VH: EVQLVESGGGLVQPGRSLRLSCAASGFTFDDFAMHWVRQAPGKGLEWVSGISWTGGNMDYANSVKGRFTISREDAKNSLYLQMNSLRAADTALYYCVKDIRGIVATGGAFDIWGRGTMVTVSS VL: DIQMTQSPSSLSASVGDRVTISCRASQTISTYLNWFQQKPGKAPKLLIYVVSSLQSGVPSRFSGSGSGTDFTLTISSLQPEDFATYYCQQSYSTPFTFGPGTKVDIK"
